The target of assay [1] is T1, IL-11 (UniProt P20809 22-199, limits assumed).
T1 construct: also called IL-11 protein; IL-11 antigen
T1 sequence (looked up): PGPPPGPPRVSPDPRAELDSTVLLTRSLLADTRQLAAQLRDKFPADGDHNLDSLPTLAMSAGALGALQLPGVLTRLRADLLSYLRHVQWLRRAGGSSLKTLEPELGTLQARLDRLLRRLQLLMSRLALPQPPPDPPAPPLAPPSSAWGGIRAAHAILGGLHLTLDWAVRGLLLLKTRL
Briefly: ELISA on IL-11, monoclonal hybridoma antibody. (In general: ELISA stands for enzyme-linked immunosorbent assay.)

In assay [2] the target is T1, IL-11. Briefly: flow, IL-11 + antibody on IL-11R cells; lower = more blocking.
Assay [3] concerns the target T1, IL-11. Briefly: phage ELISA on IL-11.
The target in assay [4] is T1, IL-11. In words: flow cytometry of phage clone; cells not given. (A flow cytometer gives signals particle by particle.)

B1: 5-20E11-5F2 (hybridoma subclone) (antibody, human IgG1, kappa, V domains shown)
VH: QVQLQQSGAELVRPGTSAKISCKASDYTFTNYWLGWLKQRPGHGLEWIGHIYPGGGYTNYNEKFKGKATLTADTSSSTAYMQLSSLTSEDSAVYFCARVRSGNDALDFWGQGTSVTVSS
VL: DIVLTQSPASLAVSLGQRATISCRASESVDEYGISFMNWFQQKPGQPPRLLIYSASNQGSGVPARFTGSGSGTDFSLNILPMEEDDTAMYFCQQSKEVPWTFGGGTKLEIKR
Take B1: the OD450 with IL-11 [1] amounted to 1.6 OD450. Moreover, in the assay with IL-11 [2], the “FITC Mean” value is 3110 mean fluorescence.

B2: 5-20E11-1A2 (antibody, V domains shown)
VH: QVQLQQPGAELVRPGTSVKMSCKASGYTFTSYWMHWVKQRPGQGLEWIGDIYPGSDSTNYHEKFKSKATLTVDTSSSTAYMQLSSLTSEDSAVYYCALDSSGYGFAYWGQGTLVTVSA
VL: NIVMTQTPKFLLVSAGDRVTITRKASQSVSNDVVWYQQKPGQSPKLLMYYASYRYTGVPDRFTGSGYGTDFTFTISNVQAEDLAVYFCQQDYSSPFTFGSGTKLEIK
Turning to B2, in the assay with IL-11 [1], the OD450 was 1.63 OD450. The “FITC Mean” value with IL-11 [2] was 3640 mean fluorescence.

B3: 1B1 (scFv)
scFv: QVQLVQSGAVVKKPGASVKVSCKASDYTFTNYWLGWVRQAPGQGLEWMGHIYPGGGYTNYNEKFKGRVTMTSDTSTSTVYMELSSLSSEDTAVYYCARVRSGNDALDFWGQGTLVTVSSGGGGSGGGGSGGGGSEIVLTQSPATLSLSPGERATLSCHASESVDEYGISFMNWFQQKPGQAPRLLIYSASNQGSGIPARFSGSGSGTDFTLTISSLEPEDFAVYFCQQSKEVPWTFGGGTKLEIK
notes: As m119: scFv on phage
With B3, the ELISA in the assay with IL-11 [3] is 1.46. In addition, in the assay with IL-11 [4], the “Flow (Mean)” value is 3500 mean fluorescence.

B4: Original sequence (1H9) (scFv)
scFv: QVQLVQSGAEVKKPGASVKVSCKASDYTFTNYWLGWVRQAPGQGLEWMGHIYPGGGYTNYNEKFKGRVTMTRDTSTSTVYMELSSLRSEDTAVYYCARVRSGNDALDFWGQGTLVTVSSGGGGSGGGGSGGGGSEIVLTQSPATLSLSPGERATLSCRASESVDEYGISFMNWFQQKPGQAPRLLIYSASNQGSGIPARFSGSGSGTDFTLTISSLEPEDFAVYFCQQSKEVPWTFGGGTKLEIK
notes: Template scFv of the phage library, on phage; also called ScFv VH-Linker-VL of VH1+VL3
In the assay with IL-11 [3], B4 came in with an ELISA of 1.16. Besides, the “Flow (Mean)” value with IL-11 [4] is 450 mean fluorescence.

B5: 2E7 (scFv)
scFv: QVQLVQSGAEVKKPGASVKVSCKASDYTFTNYWLGWVRQAPGQGLEWMGHIYPSGGYTNYNEKFKGRVTMTRDTSTSTVYMELSSLRSEDTAVYYCARVSSGNDALDFWGQGTLVTVSSGGGGSGGGGSGGGGSEIVLTQSPATLSLSPGERATLSCRASESVDEYGISFMNWFQQKPGQAPRLLIYSASNQGSGIPARFSGSGSGTDFTLTISSLEPEDFAVYFCQQSKELPWTFGGGTKLEIK
notes: As m119: scFv on phage
Take B5: in the assay with IL-11 [3], the ELISA was determined as 2.19. In addition, the “Flow (Mean)” value with IL-11 [4] was found to be 1990 mean fluorescence.

B6: 1F7 (scFv)
scFv: QVQLVQSGAEVKKPGASVKVSCKASDYTFTNYWLAWVRQAPGQGLEWMGHIYPGGGYTNYNEKFKGRVTMTRDTSTSTVYMELSSLRSEDTAVYYCARVRSGNDALDFWGQGTLVTVSSGGGGSGGGGSGGGGSEIVLTQSPATLSLSPGERATVSCRASESVDEYGISFMNWFQQKPGQAPTLLIYSASNLGSGIPARFSGSGSGTDFTLTISSLEPEDFAVYFCQQSKEVPWTFGGGTKLEIK
notes: As m119: scFv on phage
Take B6: the ELISA in the assay with IL-11 [3] is 2.38. In the assay with IL-11 [4], the “Flow (Mean)” value was determined as 1860 mean fluorescence.

B7: 1E12 (scFv)
scFv: QVQLVQSGAEVKKPGASVKVSCKASDYTFTNYWLGWVRQAPGQGLEWMGHIYPGGGYTNYNEKFKGRVTMTRDTSTSTVYMELSSLRSEDTAVYYCARVSSGNDALDLWGQGTLVTVSSGGGGSGGGGSGGGGSEIVLTQSPATLSLSPGERATLSCRASESVDEYGISFMNWFQQKPGQAPRLLIYSGSNEGSGIPARFSGSGSGTDFTLTISSLEPEDFAVYFCNQSKEVPWTFGGGTKLEIK
notes: As m119: scFv on phage
Turning to B7, the ELISA in the assay with IL-11 [3] was determined as 2.2. Further, the “Flow (Mean)” value with IL-11 [4] was 6320 mean fluorescence.

B8: 1F10 (scFv)
scFv: QVQLVQSGAEVKKPGASVKVSCKASDYTFTNYWLGWVRQAPGQGLEWMGHIYPGGGYTNYNEKFKGRVTMTRDTSTSTVYMELSSLRSEDTAVYYCARVRSGNDALDIWGQGTLVTVSSGGGGSGGGGSGGGGSEIVLTQSPATLSLSPGERATLSCRASESVDEYGISFMNWFQQKPGQAPRLLIYSASNQGDGIPARFSGSGSGTDFTLTISSLEPEDFAVYFCQQSKDVPWTFGGGTKLEIK
notes: As m119: scFv on phage
B8 came in with an ELISA with IL-11 [3] of 2.6. Further, the “Flow (Mean)” value with IL-11 [4] came out at 2640 mean fluorescence.

B9: 1G11 (scFv)
scFv: QVQLVQSGAEVKKPGASVKVSCKASDYTFTNYWLGWVRQAPGQGLEWMGHIYPGGGYTNYNEKFKGRVTMTRDTSTSTVYMELSSLRSEDTAVYYCARVSSGNDALDFWGQGTLVTVSSGGGGSGGGGSGGGGSEIVLTQSPATLSLSPGERATLSCRASESVDEYGISFMNWFQQKPGQAPRLLIYSASNQASGIPARFSGSGSGTDFTLTISSLEPEDFAVYFCQQSKELPWTFGGGTKLEIK
notes: As m119; the printed mutations are the same as those of 1F12
Molecule B9 showed an ELISA with IL-11 [3] of 2.58. Besides, the “Flow (Mean)” value with IL-11 [4] was found to be 2900 mean fluorescence.

B10: 2F1 (scFv)
scFv: QVQLVQSGAEVKKPGASVKVSCKASDYTFTNYWLGWVRQAPGQGLEWMGHIYPGGGYTNYNEKFKGRVTMTRDTSTSTVYMELSSLRSEDTAVYYCARVSSGNDALDFWGQGTLVTVSSGGGGSGGGGSGGGGSEIVLTQSPATLSLSPGERATLSCRASESVDEYGISFMNWFQQKPGQAPRLLIYSASNQGSGIPARFSGSGSGTDFTLTISSLEPEDFAVYFCQQSKELPWTFGGGTKLEIK
notes: As m119; the printed mutations are the same as those of 2E2
Turning to B10, in the assay with IL-11 [3], the ELISA came out at 2.1. Also, the “Flow (Mean)” value with IL-11 [4] was 2390 mean fluorescence.

B11: 1F9 (scFv)
scFv: QVQLVQSGAEVKKPGASVKVSCKASDYTFHNYWLGWVRQAPGQGLEWMGHIYPGGGYTNYNEKFKGRVTMTRDTSTSTVYMELSSLRSEDTAVYYCARVSSGNDALDFWGQGTLVTVSSGGGGSGGGGSGGGGSEIVLTQSPATLSLSPGERATLSCRASESVDEYGISFMNWFQQKPGQAPRLLIYSASNQGSGIPARFSGSGSGTDFTLTISSLEPEDFAVYFCQQSKELPWTFGGGTKLEIK
notes: As m119: scFv on phage
For the molecule B11, the ELISA with IL-11 [3] turned out to be 2.59. In the assay with IL-11 [4], the “Flow (Mean)” value is 3820 mean fluorescence.

B12: 2F2 (scFv)
scFv: QVQLVQSGAEVKKPGASVKVSCKASDYTFTNYWLGWVRQAPGQGLEWMGHIYPGGGYTNYNEKFKGRVTMTRDTSTSTVYMELSSLRSEDTAVYYCARVSSGNDALDLWGQGTLVTVSSGGEGSGGGGSGGGGSEIVLTQSPATLSLSPGERATLSCRASESVDEYGISFMNWFQQKPGQAPRLLIYSASNQGSGIPARFSGSGSGTDFTLTISSLEPEDFAVYFCQQSKEVPWTFGGGTKLEIK
notes: As m119: scFv on phage
For the molecule B12, the ELISA with IL-11 [3] was 2.65. Moreover, in the assay with IL-11 [4], the “Flow (Mean)” value was 2000 mean fluorescence.

B13: 2E2 (scFv)
scFv: QVQLVQSGAEVKKPGASVKVSCKASDYTFTNYWLGWVRQAPGQGLEWMGHIYPGGGYTNYNEKFKGRVTMTRDTSTSTVYMELSSLRSEDTAVYYCARVSSGNDALDFWGQGTLVTVSSGGGGSGGGGSGGGGSEIVLTQSPATLSLSPGERATLSCRASESVDEYGISFMNWFQQKPGQAPRLLIYSASNQGSGIPARFSGSGSGTDFTLTISSLEPEDFAVYFCQQSKELPWTFGGGTKLEIK
notes: As m119: scFv on phage
B13 yielded an ELISA in the assay with IL-11 [3] of 2.58. Moreover, the “Flow (Mean)” value in the assay with IL-11 [4] was 2100 mean fluorescence.

B14: 2G9 (scFv)
scFv: QVQLVQSGAEVKKPGASVKVSCKASDYTFTNYWLGWVRQAPGQGLEWMGHIYPGGGYTNYNEKFKGRVTMTRDTSTSTVYMELSSLRSEDTAVYYCARVSSGNDALDFWGQGTLVTVSSGGGGSGGGGSGGGGSEIVLTQSPATLSLSPGERATLSCRASESVDEYGISFMNWFQQKPGQAPRLLIYGASNQGSGIPARFSGSGSGTDFTLTISSLEPEDFAVYFCQQSKELPWTFGGGTKLEIK
notes: As m119: scFv on phage
The molecule B14 came in with an ELISA with IL-11 [3] of 2.09. Moreover, in the assay with IL-11 [4], the “Flow (Mean)” value was found to be 1910 mean fluorescence.

B15: 1G9 (scFv)
scFv: QVQLVQSGAEVKQPGASVKVSCKASDYTFTNYWLGWVRQAPGQGLEWMGHIYPGGGYTNYNEKFKGRVTMTRDTSTSTVYMELSSLRSEDTAVYYCARVRSGNDALDFWGQGTLVTVSSGGGGSGGGGSGDGGSEIVLTQSPATLSLSPGERATLSCRASESVDEYGISFMNWFQQKPGQAPRLLIYSASNRGSGIPARFSGSGSGTDFTLTINSLEPEDFAVYFCQQSKEVPWTFGGGTKLEIK
notes: As m119: scFv on phage
Molecule B15 registered an ELISA in the assay with IL-11 [3] of 2.81. The “Flow (Mean)” value in the assay with IL-11 [4] amounted to 2240 mean fluorescence.

B16: 1F12 (scFv)
scFv: QVQLVQSGAEVKKPGASVKVSCKASDYTFTNYWLGWVRQAPGQGLEWMGHIYPGGGYTNYNEKFKGRVTMTRDTSTSTVYMELSSLRSEDTAVYYCARVSSGNDALDFWGQGTLVTVSSGGGGSGGGGSGGGGSEIVLTQSPATLSLSPGERATLSCRASESVDEYGISFMNWFQQKPGQAPRLLIYSASNQASGIPARFSGSGSGTDFTLTISSLEPEDFAVYFCQQSKELPWTFGGGTKLEIK
notes: As m119: scFv on phage
As for B16, the ELISA in the assay with IL-11 [3] came out at 2.59. In addition, the “Flow (Mean)” value with IL-11 [4] came out at 4140 mean fluorescence.

B17: 3-6A4 (hybridoma) (antibody, human IgG1, kappa, V domains shown)
VH: QIQLVQSGPELKKPGETVKISCKASGYTFTTNGINWVKQAAGKGLKWMGWINTNTGEPTNAEELKGRFAFSLETSASTAYLQINNLKNEDAAIYFCAREGAFGLDYWGQGTSVTVSS
VL: SIVMTQSPKFLLVSAGDRVIITCKASQSVSNDVVWYQQKPGQSPKLLIYYGSHRNTGVPTRFTGSGYGTDFTFTISTVQAEDLAVYFCQQDFFSPWTFGGGTKLEIKR
notes: only the variable parts apply for certain
Consider B17, for which the OD450 with IL-11 [1] came out at 1.58 OD450. For the same molecule, the “FITC Mean” value in the assay with IL-11 [2] came out at 3040 mean fluorescence.

B18: 3-5B2-2G4 (antibody, human IgG1, kappa, V domains shown)
VH: QIQLVQSGPELKKPGETVKISCKASGYTFTNYGMNWVKQAPGKGLKWMGWINTNTGEPTYAEEIKGRFAFSLETSASTAYLQINNLKNEDTATYFCSREGIYGMDSWGQGTSVTVSS
VL: SIVMTQTPKFLLVSAGDRVTITCKASQSVSNDVVWYRQKPGQSPKLLIYYASNRYIGVPDRFTGSGYGTDFTFTISTVQAEDLAVYFCQQDYYSPWTFGGGTKLEIKR
As to B18, the OD450 with IL-11 [1] was 1.65 OD450. The “FITC Mean” value with IL-11 [2] stood at 19800 mean fluorescence.

Values taken from US20250002574A1 (SUNSHINE LAKE PHARMA, published 2025).
